Results published in patent US20180251563A1 (SUBDOMAIN, published 2018).
Changes are numbered by the printed parent chain.

Tests used:
human PD-L1 = human PD-L1 (human, UniProt Q9NZQ7 19-238, limits assumed); assay: ELISA, FLAG-tagged pb04 on immobilised Human PDL1-Fc
Protocol: (§1) FIG. 16A establishes that a soluble DBDpp selected for binding to human PD-L1 (pb04 in this nonlimiting embodiment), can also bind PD-L1 of cynomolgus (Macaca fascicularis), as assessed by ELISA. Human PD-L1 or cynomolgus PD-L1 was immobilized in separate wells of an ELISA plate. Soluble DBDpp (FLAG tagged) directed against PD-L1 was incubated in the respective plates to assess the degree of binding with PD-L1 from each species. As shown, pb04 DBDpp binds to both human and cynomolgus PD-L1.

cynomolgus PD-L1 = target: T1, cynomolgus PD-L1 (cynomolgus (Macaca fascicularis), UniProt G7PSE7 19-238); assay: ELISA, FLAG-tagged pb04 on immobilised Cynomolgus PDL1-Fc
T1 construct: also called PD-L1 of cynomolgus (Macaca fascicularis)
Protocol: as §1

[1] = target: PD-L1 (target of Example 25) (UniProt Q9NZQ7 19-238, limits assumed); assay: library selection; assay not described
PD-L1-Fc [2] = target: T2, PD-L1-Fc (UniProt Q9NZQ7 19-238); assay: ELISA on PD-L1-Fc, in vitro translated DBDpp-6xHIS heated 2 minutes at 25-100 C and serially diluted, detection with anti-6xHIS-HRP
T2 construct: purified recombinant target-Fc protein; also called FC-PD-L1; not shown: Fc
Protocol: DBDpp-6×HIS fusions (pb04 and pb06) and scFv-6×HIS fusions were expressed through in vitro transcription and translation reactions (NEB, PureExpress). Samples were diluted in ELISA blocking buffer (Thermo Fisher) 30 fold. Individual samples were subsequently incubated at either 25° C., 40° C., 55° C., 70° C. or 100° C. for 2 minutes and then rapidly returned to room temperature. The temperature increase, followed by rapid cooling can cause denaturation of the protein or other breakdown of the three-dimensional structure of proteins that reduce target interaction and/or binding. The ability of proteins to bind with a ligand, such as a target tumor antigen, after being exposed to denaturing conditions indicates either enhanced stability during exposure to elevated temperature or an ability to re-fold and maintain function after exposure. […]
The heat-exposed samples were serially diluted in ELISA buffer and measured for binding to PD-L1-Fc in ELISA. Bound proteins were detected with HRP-conjugated rabbit anti-6×HIS polyclonal antibody (Abcam). […] Since this particular scFv is not configured to bind PD-L1, this function as a negative control, and as expected, no binding is detected for any of the DR5 scFv, regardless of the temperatures they were exposed to. […]

[3] = target: T3, Fc-fusion protein comprising the extracellular domain of CD123 fused to human IgG1 Fc (human, UniProt P26951 19-305); assay: flow cytometry, transiently transfected 293T cells incubated with CD123-Fc, detection with PE anti-human IgG; CAR expression by anti-FLAG
T3 construct: also called Fc-CD123; not shown: human IgG1 Fc
T3 sequence: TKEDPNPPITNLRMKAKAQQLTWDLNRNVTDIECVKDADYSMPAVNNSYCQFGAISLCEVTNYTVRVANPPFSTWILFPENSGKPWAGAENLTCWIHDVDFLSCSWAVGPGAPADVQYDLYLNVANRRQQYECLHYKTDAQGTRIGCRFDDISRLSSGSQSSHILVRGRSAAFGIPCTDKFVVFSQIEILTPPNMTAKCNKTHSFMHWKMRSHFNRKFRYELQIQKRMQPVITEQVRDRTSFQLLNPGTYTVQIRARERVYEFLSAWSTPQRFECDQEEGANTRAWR
Protocol: 293T cells were transiently transfected with pcDNA3 expression vectors encoding DBDpp containing CARs using (see, e.g., FIG. 5B) Lipofectamine 3000 (Life Technologies). After 24 hours, cells were collected using CellStripper™. Cells were assessed for CAR expression using a fluorescent-labeled anti-FLAG antibody. DBDpp containing CARs binding to CD123 was measured by incubating cells with a Fc-fusion protein comprising the extracellular domain of CD123 fused to human IgG1 Fc in cell culture media at 37° for 30 minutes, washing, and then detection with a PE anti-human IgG antibody. Both CD123 binding and CAR expression (FLAG Tag) were assayed by flow cytometry. Data are shown in FIG. 17, and each data point indicates the average FLAG expression and CD123-binding for each of the DBDpp-CARs from multiple experiments.

CD47-Fc = target: T4, CD47-Fc (UniProt Q08722 19-139); assay: phage ELISA, target-Fc against non-specific control
T4 construct: purified recombinant target-Fc protein; not shown: Fc
Protocol: (§2) Selections were also performed using F1, F2, F3, C1 & C2 trinucleotide phosphoramidite libraries. In most cases, libraries were pooled prior to use in selection. By combining equal volumes of the individual libraries, Pool F (libraries F1, F2 and F3) and Pool C (libraries C1 and C2) were generated. These libraries were used in selections for DBDpp binders to 4-1BB/CD137 as well as a larger panel of purified recombinant “target”-Fc proteins, including CD47, CTLA4, DR5, KIR, LAG3, OX40, PD1, PD-L1 and TIM3. (Many of these targets are considered immuno-regulatory factors (Pardoll et al., Nat. Rev. Cancer 12:252-264 (2012)). After incubation of the target with the pools of DBDpp phage libraries, bound phage-target complexes were captured and separated from unbound phage with protein A beads (target proteins were Fc fusions). After three rounds of selection, rescued phage clones were screened by ELISA for binding to the selected target.
(§3) For each target, approximately 90 DBDpp phage clones were screened by ELISA for binding to the target protein and as well as a non-specific control (e.g., IgG1-Fc). […] In some instances, for the ELISA screening plate in which the majority of DBDpp clones were positive, the entire plate was sequenced.

CTLA4-Fc = target: T5, CTLA4-Fc (UniProt P16410 36-161, limits assumed); assay: as above
T5 construct: purified recombinant target-Fc protein; not shown: Fc
Protocol: as §2, §3

PD1-Fc = target: T6, PD1-Fc (UniProt Q15116 25-167); assay: as above
T6 construct: purified recombinant target-Fc protein; not shown: Fc
Protocol: as §2, §3

TIM3-Fc = target: T7, TIM3-Fc (UniProt Q8TDQ0 22-200); assay: as above
T7 construct: purified recombinant target-Fc protein; not shown: Fc
Protocol: as §2, §3

PD-L1-Fc [4] = target: T2, PD-L1-Fc; assay: ELISA, purified FLAG-tagged protein on PD-L1-Fc coated wells
[5] = target: T8, recombinant, biotinylated, Human 4-1BB/TNFRSF9/CD137-Fc (human, UniProt Q07011 24-186, biotinylated (F2NNK selection)); assay: phage ELISA, target-Fc against non-specific control (IgG Fc)
T8 construct: also called 4-1BB/CD137; not shown: Fc
Description: The F2NNK DBD library was used in five rounds of selection against recombinant, biotinylated, Human 4-1BB/TNFRSF9/CD137-Fc.

T6 sequence (Q15116 25-167 limits assumed): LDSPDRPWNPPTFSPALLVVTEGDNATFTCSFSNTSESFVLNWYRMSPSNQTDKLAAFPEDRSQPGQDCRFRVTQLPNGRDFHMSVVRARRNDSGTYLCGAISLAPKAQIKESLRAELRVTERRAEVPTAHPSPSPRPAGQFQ
T4 sequence (Q08722 19-139 limits assumed): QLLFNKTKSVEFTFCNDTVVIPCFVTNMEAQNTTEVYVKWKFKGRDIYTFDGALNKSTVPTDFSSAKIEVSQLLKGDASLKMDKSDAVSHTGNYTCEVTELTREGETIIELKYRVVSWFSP
Chain of PD-L1 (target of Example 25) (Q9NZQ7 19-238 limits assumed): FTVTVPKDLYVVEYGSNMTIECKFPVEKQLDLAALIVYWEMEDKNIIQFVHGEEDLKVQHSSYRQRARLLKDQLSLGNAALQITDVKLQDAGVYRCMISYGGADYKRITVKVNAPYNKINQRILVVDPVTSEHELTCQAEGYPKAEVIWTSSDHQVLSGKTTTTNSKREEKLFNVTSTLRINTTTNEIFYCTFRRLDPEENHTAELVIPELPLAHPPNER
T2 sequence (Q9NZQ7 19-238 limits assumed): as above
Chain of human PD-L1 (Q9NZQ7 19-238 limits assumed): as above
T5 sequence (P16410 36-161 limits assumed): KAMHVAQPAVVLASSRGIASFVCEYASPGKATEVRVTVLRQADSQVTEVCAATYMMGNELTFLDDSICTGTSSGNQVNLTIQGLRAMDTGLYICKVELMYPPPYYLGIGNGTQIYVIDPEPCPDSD
T8 sequence (Q07011 24-186 limits assumed): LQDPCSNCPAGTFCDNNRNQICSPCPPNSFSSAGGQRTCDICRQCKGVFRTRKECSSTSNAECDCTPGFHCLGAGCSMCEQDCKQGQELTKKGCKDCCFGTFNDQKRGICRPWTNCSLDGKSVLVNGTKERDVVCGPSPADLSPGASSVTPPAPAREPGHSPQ
T1 sequence (G7PSE7 entry or part of it): as the sequence (Q9NZQ7 19-238 limits assumed) above, with A33T, A34S, S62N, R68Q, Q82R, F173L, T185A, T192I, H215L counted along it

B1: FLAG-pb04 (designed binder)
chain: MGSWYEFTVRLEAIHERLKALGGSEAELAAFEKEIAAFESELQAYKGKGNPEVEILRDDAAFIRRFLQAYRHN
notes: expressed and purified from E. coli; also called N-terminal FLAG tag fusion of pb04; soluble DBDpp (FLAG tagged) directed against PD-L1; not shown: N-terminal FLAG tag
Human PD-L1
  EC50: 31.4 nM
Cynomolgus PD-L1
  EC50: 42.1 nM

B2: SEQ ID NO 186 (designed binder)
chain: B1 chain with Y5T, T8E, V9Q, E16N, K19Q, I55E, D58N, R65H
[1]
  binding result: binds

B3: pb06 DBDpp-6xHIS fusion (designed binder)
chain: B1 chain with T8D, V9D, E12N, E16D, K19Q, I55D
notes: made by in vitro transcription and translation; not shown: 6xHIS tag
PD-L1-Fc [2]
  binding result: binds

B4: SEQ ID NO 185 (designed binder)
chain: B1 chain with Y5N, T8K, V9N, E12D, E16K, K19N, I55N, R65H
[1]
  binding result: binds

B5: cg06 DBDpp-CAR (other)
chain: MGSWDEFGRRLYAIEWRLYALGGSEAELAAFEKEIAAFESELQAYKGKGNPEVEKLREIAAVIRSNLQAYRHN
notes: expressed on Jurkat NFAT reporter cells; not shown: rest of the CAR (FLAG tag, linker, transmembrane and intracellular domains) not specified
[3]
  binding result: binds

B6: SEQ ID NO 20 (designed binder)
chain: MGSWYEFDLRLHAIYDRLVALGGSEAELAAFEKEIAAFESELQAYKGKGNPEVEILRDNAAYIRQMLQAYRHN
CD47-Fc
  ELISA ratio (target to background): 14.1 ratio

B7: SEQ ID NO 22 (designed binder)
chain: B6 chain with Y5A, L9H, Y15R, D16E, V19H, D58G, Q65A, M66L
CD47-Fc
  ELISA ratio (target to background): 11.7 ratio

B8: SEQ ID NO 25 (designed binder)
chain: MGSWHEFHDRLQAIHERLYALGGSEAELAAFEKEIAAFESELQAYKGKGNPEVESLRIAAAHIRQVLQAYRHN
CTLA4-Fc
  ELISA ratio (target to background): 2.95 ratio

B9: SEQ ID NO 24 (designed binder)
chain: MGSWTEFYSRLEAIWVRLQALGGSEAELAMFEDRIAHFEWFLQQYKGKGNPEVEALHEEAIAIRKELAAYRHN
CD47-Fc
  ELISA ratio (target to background): 4.58 ratio

B10: SEQ ID NO 46 (designed binder)
chain: MGSWTIFKEWLAFIKTDLEALGGSEAELAFFEGWIASFEMELQKYKGKGNPEVEALRKEAAAIRDELQAYRHN
PD1-Fc
  ELISA ratio (target to background): 17.1 ratio

B11: SEQ ID NO 47 (designed binder)
chain: MGSWVMFKWLLADIKSHLEALGGSEAELAFFEGFIAAFETHLQVYKGKGNPEVEALRKEAAAIRDELQAYRHN
PD1-Fc
  ELISA ratio (target to background): 8.13 ratio

B12: SEQ ID NO 48 (designed binder)
chain: MGSWYAFKDYLADIKGWLEALGGSEAELAFFEIFIARFELELQAYKGKGNPEVEALRKEAAAIRDELQAYRHN
PD1-Fc
  ELISA ratio (target to background): 3.29 ratio

B13: SEQ ID NO 45 (designed binder)
chain: MGSWVVFKVDLATIKYILEALGGSEAELAEFEGEIAGFEYSLQFYKGKGNPEVEALRKEAAAIRDELQAYRHN
TIM3-Fc
  ELISA ratio (target to background): 5.79 ratio

B14: FLAG-α3D (other)
chain: MGSWAEFKQRLAAIKTRLQALGGSEAELAAFEKEIAAFESELQAYKGKGNPEVEALRKEAAAIRDELQAYRHN
notes: expressed and purified from E. coli; also called N-terminal FLAG tag fusion of a3D; alpha3D; not shown: N-terminal FLAG tag
PD-L1-Fc [4]
  binding result: no binding (tested: about 1000 nM)

B15: bb10 (designed binder)
chain: B14 chain with Q19E, E32L, K33G, A36W, S40M, Q43A, R57G, K58R, D65M
notes: F2NNK library clone
[5]
  ELISA ratio (target to background): 5.27 ratio

B16: SEQ ID NO 23 (designed binder)
chain: MGSWTEFVGRLAAIEFRLWALGGSEAELAWFEAHIAFFEDYLQWYKGKGNPEVEALREEAGAIMEELKAYRHN
CD47-Fc
  ELISA ratio (target to background): 8.23 ratio

B17: SEQ ID NO 21 (designed binder)
chain: MGSWTEFTYRLSAIEWRLWALGGSEAELAWFEQKIAFFEDFLQYYKGKGNPEVEALKHEAGAILNELMAYRHN
CD47-Fc
  ELISA ratio (target to background): 12.5 ratio
